Experimental data from the supplement of paper PMC7877785.
± gives the uncertainty stated by the source.

Assay: self-splicing fitness, log relative to wild type (ln ratio); higher = more splicing; Tetrahymena group I intron in knt gene, E. coli kanamycin selection, DiMSum; sequences stand for … in CUCUCU…GGAGGGAAAAGUUAUCAGGCAUGCACCUGGUAGCUAGUCUUUAAACCAAUAGAUUGCAUCGGUUUAAAAGGCAAGACCGUCAAAUUGCGGGAAAGGGGUCAACAGCCGUUCAGUACCAAGUCUCAGGGGAAACUUUGAGAUGGCCUUGCAAAGGGUAUGGUAAUAAGCUGACGGACAUGGUCCUAACCACGCAGCCAAGUCCUAAGUCAACAGAUCUUCUGUUGAUAUGGAUGCAGUUCACAGACUAAAUGUCGGUCGGGGAAGAUGUAUUCUUCUCAUAAGAUAUAGUCGGACCUCUCCUUAAUGGGAGCUAGCGGAUGAAGUGAUGCAACACUGGAGCCGCUGGGAACUAAUUUGUAUGCGAAAGUAUAUUGAUUAGUUUUGGAGUACUCGUGGUCG
How it was run: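 DiMSum derived fitness as the error-weighted combination of fold changes across replicates, kanamycin versus no kanamycin, normalised to wild type. E. coli BL21(DE3) held the library, which randomised all eight P1ex-region intron nucleotides within the knt kanamycin-resistance gene on pET-22b(+). Six replicate transformations grew overnight at 37°C or 30°C on LB agar with or without 25 μg/mL kanamycin, also containing 100 μg/mL carbenicillin, 50 μM IPTG and 0.2% rhamnose, and pooled colonies were amplicon-sequenced on an Illumina HiSeq 2500.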

Sequence | self-splicing fitness (ln) (30 °C) | self-splicing fitness (ln) (37 °C)
AAUCAGCAAUAUUACGGCAA | -0.417 ± 0.074 | 0.747 ± 0.091
AAUCAGCAAUAUUACGGCUC | -0.84 ± 0.082 | 0.535 ± 0.097
AAUCAGCAAUAUUACGGGAG | -1.48 ± 0.054 | -0.88 ± 0.068
AAUCAGCAAUAUUACGGGAU | -1.45 ± 0.08 | -1.34 ± 0.087
AAUCAGCAAUAUUACGGUCC | -0.242 ± 0.085 | -0.118 ± 0.1
AAUCAGCAAUAUUACGUAGA | -0.378 ± 0.071 | -0.124 ± 0.089
AAUCAGCAAUAUUACGUAUG | -0.407 ± 0.079 | 0.138 ± 0.11
AAUCAGCAAUAUUACGUCUC | -0.509 ± 0.091 | -0.314 ± 0.093
AAUCAGCAAUAUUACGUUGA | -0.828 ± 0.086 | -0.22 ± 0.1
AAUGAGCAAUAUUACGAACG | -2.46 ± 0.31 | -1.74 ± 0.3
AAUGAGCAAUAUUACGAAUC | – | -1.74 ± 0.3
AAUGAGCAAUAUUACGACUG | -3.77 ± 0.28 | -0.811 ± 0.19
AAUGAGCAAUAUUACGAGUU | -3.21 ± 0.28 | -1.8 ± 0.31
AAUGAGCAAUAUUACGAUCU | -0.572 ± 0.074 | -0.195 ± 0.1
AAUGAGCAAUAUUACGCAAG | -3.81 ± 0.27 | -2.45 ± 0.38
AAUGAGCAAUAUUACGCGAA | -3.05 ± 0.18 | -2.7 ± 0.22
AAUGAGCAAUAUUACGCGUG | -2.11 ± 0.11 | -0.949 ± 0.1
AAUGAGCAAUAUUACGGACA | -2.93 ± 0.45 | –
AAUGAGCAAUAUUACGGCAC | -2.9 ± 0.28 | -1.27 ± 0.32
AAUGAGCAAUAUUACGGCUC | -1.82 ± 0.23 | -2.03 ± 0.38
AAUGAGCAAUAUUACGGCUU | -1.85 ± 0.19 | -1.19 ± 0.18
AAUGAGCAAUAUUACGGGAA | -2.61 ± 0.26 | -3.04 ± 0.33
AAUGAGCAAUAUUACGGGAC | -2.96 ± 0.26 | -1.36 ± 0.25
AAUGAGCAAUAUUACGGGGG | -4.09 ± 0.42 | -1.32 ± 0.25
AAUGAGCAAUAUUACGGUUU | -2.13 ± 0.097 | -0.543 ± 0.11

Sequence | self-splicing fitness (ln) (30 °C) | self-splicing fitness (ln) (37 °C)
AAUGAGCAAUAUUACGUAGU | -3.83 ± 0.22 | -2.22 ± 0.21
AAUGAGCAAUAUUACGUCUG | -2.92 ± 0.15 | -3 ± 0.21
AAUGAGCAAUAUUACGUGAG | -3.5 ± 0.23 | -1.78 ± 0.14
AAUGAGCAAUAUUACGUGCA | -2.95 ± 0.22 | -0.932 ± 0.14
AAUGAGCAAUAUUACGUGCU | -3.93 ± 0.36 | -2.44 ± 0.25
AAUUAGCAAUAUUACGACGC | -1.08 ± 0.14 | -0.792 ± 0.13
AAUUAGCAAUAUUACGAGAA | -2.65 ± 0.48 | -1.05 ± 0.28
AAUUAGCAAUAUUACGAGAU | -2.7 ± 0.17 | -2.16 ± 0.17
AAUUAGCAAUAUUACGAGCG | -1.1 ± 0.096 | -0.749 ± 0.099
AAUUAGCAAUAUUACGAGCU | -1.02 ± 0.12 | -0.169 ± 0.15
AAUUAGCAAUAUUACGAUCC | -0.705 ± 0.18 | -0.148 ± 0.26
AAUUAGCAAUAUUACGAUCU | 0.226 ± 0.09 | 0.704 ± 0.11
AAUUAGCAAUAUUACGCCUA | 0.234 ± 0.13 | 0.297 ± 0.15
AAUUAGCAAUAUUACGCGGC | -2.28 ± 0.39 | -1.32 ± 0.3
AAUUAGCAAUAUUACGCUAA | -2.5 ± 0.28 | -2.27 ± 0.24
AAUUAGCAAUAUUACGCUGG | -1.35 ± 0.17 | -1.01 ± 0.2
AAUUAGCAAUAUUACGCUUG | -0.701 ± 0.07 | 0.227 ± 0.095
AAUUAGCAAUAUUACGGACG | -1.29 ± 0.16 | 0.266 ± 0.12
AAUUAGCAAUAUUACGGAGU | -2.69 ± 0.2 | -1.02 ± 0.17
AAUUAGCAAUAUUACGGAUG | -2.06 ± 0.12 | -0.146 ± 0.15
AAUUAGCAAUAUUACGGUAC | -2.42 ± 0.16 | -1.22 ± 0.2
AAUUAGCAAUAUUACGGUCA | 0.31 ± 0.12 | -0.629 ± 0.098
AAUUAGCAAUAUUACGGUGG | -2.7 ± 0.18 | -1.96 ± 0.22
AAUUAGCAAUAUUACGUGAA | -2.4 ± 0.15 | -1.22 ± 0.17
AAUUAGCAAUAUUACGUGCC | -1.48 ± 0.082 | -0.857 ± 0.11

Sequence | self-splicing fitness (ln) (30 °C) | self-splicing fitness (ln) (37 °C)
AAUUAGCAAUAUUACGUGCU | -2.18 ± 0.12 | -1.33 ± 0.11
AAUUAGCAAUAUUACGUUUG | -3.16 ± 0.22 | -2.9 ± 0.27
ACAAAGCAAUAUUACGAAUC | -2.69 ± 0.19 | -1.66 ± 0.17
ACAAAGCAAUAUUACGACCC | -0.934 ± 0.16 | 0.532 ± 0.21
ACAAAGCAAUAUUACGAGCG | -0.894 ± 0.084 | 0.57 ± 0.096
ACAAAGCAAUAUUACGAGUA | -3.03 ± 0.16 | -1.7 ± 0.11
ACAAAGCAAUAUUACGAUAC | -2.89 ± 0.2 | -2.29 ± 0.16
ACAAAGCAAUAUUACGAUCA | -0.675 ± 0.066 | -0.735 ± 0.093
ACAAAGCAAUAUUACGAUCC | -1.55 ± 0.071 | 0.389 ± 0.1
ACAAAGCAAUAUUACGCAAU | -1.87 ± 0.078 | -1.6 ± 0.092
ACAAAGCAAUAUUACGCCGA | -2.13 ± 0.15 | -0.465 ± 0.13
ACAAAGCAAUAUUACGCGGG | -2.47 ± 0.09 | -1.01 ± 0.09
ACAAAGCAAUAUUACGCUAC | -3.07 ± 0.28 | -2.43 ± 0.33
ACAAAGCAAUAUUACGCUGC | -3.63 ± 0.25 | -1.26 ± 0.21
ACAAAGCAAUAUUACGCUUU | -3.64 ± 0.24 | -2.16 ± 0.17
ACAAAGCAAUAUUACGGAAC | -3.33 ± 0.13 | -2.43 ± 0.15
ACAAAGCAAUAUUACGGAGC | -3.17 ± 0.13 | -2.62 ± 0.15
ACAAAGCAAUAUUACGGAUA | -2.14 ± 0.2 | -1.68 ± 0.17
ACAAAGCAAUAUUACGGCAC | -1.61 ± 0.079 | -0.954 ± 0.12
ACAAAGCAAUAUUACGGCAG | -1.1 ± 0.064 | -0.658 ± 0.088
ACAAAGCAAUAUUACGGGUA | -1.86 ± 0.09 | -0.94 ± 0.087
ACAAAGCAAUAUUACGGGUC | -3.18 ± 0.14 | -1.76 ± 0.2
ACAAAGCAAUAUUACGGUGC | -2.89 ± 0.12 | -2.32 ± 0.12
ACAAAGCAAUAUUACGUAUU | -1.94 ± 0.086 | -1.18 ± 0.11
ACAAAGCAAUAUUACGUCAA | -3.26 ± 0.25 | -1.66 ± 0.14
